Measured values published in patent EP3443010B1.
“And” between values parts separate entries of the source, which are not always exact repeats. Equal values may be shown once.

Target: recombinant hSIRPa (Sino Biologicals, reference 10975-H08H) (human) (UniProt P78324)
Experiment: ELISA, hSIRPa (Sino 10975-H08H) coated at 0.5 ug/ml, anti-mouse Fc detection

recombinant hSIRPa (Sino Biologicals, reference 10975-H08H) (human), sequence (P78324 other isoform, or with tags, fused parts or gaps H08H H08H): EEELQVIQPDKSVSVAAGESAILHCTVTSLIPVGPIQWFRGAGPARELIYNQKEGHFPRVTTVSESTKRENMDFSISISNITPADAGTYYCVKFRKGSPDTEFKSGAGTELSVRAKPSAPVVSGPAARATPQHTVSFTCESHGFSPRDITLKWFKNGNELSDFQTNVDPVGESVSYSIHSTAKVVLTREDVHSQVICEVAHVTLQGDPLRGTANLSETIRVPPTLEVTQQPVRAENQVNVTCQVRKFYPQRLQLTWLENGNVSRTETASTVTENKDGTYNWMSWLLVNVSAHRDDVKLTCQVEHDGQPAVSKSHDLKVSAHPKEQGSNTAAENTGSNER

- EC50: 0.16 nM and 0.024 µg/mL
Substance: SE5A5 (antibody)
